Data reported in the nanobody polyreactivity screen of Harvey et al. (2022).

test: yeast display, Sf9 membrane polyspecificity reagent, FACS + sequencing; frameworks hold sequencing errors
Outline: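 In a synthetic yeast display library (Saccharomyces cerevisiae BJ5465), nanobody expression was induced with galactose for 36–48 hours. FACS gates were set low and high (top ~1%) using anti-HA fluorescence for expression and streptavidin fluorescence for binding of the Sf9 membrane reagent. Each polyreactivity label is drawn from the gate of origin.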

Sequence | polyreactivity (PSR sort gate)
QGQLVESGGGLVQAGGSLRLSCAASGRTFQYYAMGWYRQATGKERELVAAITTVGSTKYADSVKGRFTISRDNAKNTVYLQMNSVKPEDTAVYYCAAGYRTRSGHRVPYSDYSWGQGTQVTVSS | high polyreactivity
QVQLVESGGGLVQAGGSLRLSCAASGRTFPRYAMGWYRQAPGKERELVAAITRRGSSTYYADSVKGRFTISRDNAKNTVYLQMNSLKPEDTAVYYCATSYHGYYYRYDYWGQGTQVTVSS | high polyreactivity
QVQLVESGGGLVQAGGSLRLTCAASGFTFGRYAMGWYRQAPGKERELVAAISTRGGSTYYADSVKGRFTISRDNAKNTVYLQMNSLKPEDTAVYYCAAGGYYVRYDYWGQGTQVTVSS | high polyreactivity
QVQLVESGGGLVQAGGSLRLSCAASGRILEGYSMGWYRQAPGKERELVAAISFSTTTTYYADSVKGRFTISRDNAKNTVYVQMNILKPEDTAVYYCAADSQQSDYDYWGQGTQVTVSS | high polyreactivity
QVQLVESGGGLVQAGGSLRLSCAASGSIFYTNAMGWYRQAPGKERELVAAITWSGGRTYYADSVKGRFTISRDIAKNTVYLQMNSLKPEDTAVYYCNREGWHYGPYGYWGQGTQVTVSS | low polyreactivity
QVQLVESGGGLVQAGGSLRLICAASGSTFSYNAMGWYRQAPGKEREFVAAITSSGSSTYYADSVKGRFTISRYNAKNTVYLQMNSLKPEDTAVYYCNAEVLFVAGQVQRNSGDYWGQGTQVTVSS | low polyreactivity
QVQLVESGGGLVQAGGSLRLSCAASGRIFSYNAMGWYRQAPGKERELVAAISTGTSTYYADSVKGRFTISGDNAKNTVYLQMNSLKPEDTAVYYCAVDAYYWYQWYDYWGQGTQVTVSS | low polyreactivity
QVQLVESGGGLVQAGGSLRLSCAASGRIFKFNAMGWYRQAPGKEMELVAATWSGGRTYYSDSVKGRFTISRDNAKYTVYLQMNCLKPEDTAVYYCNAADSSWYVLYGSYYRSGLDYWGQGTQVTVSS | low polyreactivity
QVQLVESGGGLVQARGSLRLSCAASGSTSDINAMGWYRHAPGKARELVAVITDSSNTDYADSVKGRFTISRDNAKNTVYLQMNSLKPEDTAVYYCARDDATAGDYWGQGTQVTVSS | low polyreactivity
QVQLVESGGCLVQAGGSLRLSCAASGRIFGYYARGWYRQSAGKERELVAAITRNGGSTYYADSVKGRFTISRDNAKNTVYIQMISLKPVDTAVYYCYATKGGGRGYWCQGTQVTVSS | high polyreactivity
QVQLVESGGGLVQAGGSLRLSCAASGIIFRNYAMGWYRQAPGKERELVAAISRNGGSTYYADSVKGRFTISRDNAKNTVYLQMNSLKPEDTAVYYCAAVSPGTVTNGKSRDYWGQGTQVSVSS | high polyreactivity
QVQLVESGGGLVQAGGSLRLSCSASGRILRQYAMGWSRQAPGKERELVAAITSSGGSTYYADSVKGRFTISRDNAKNTVYLQMNSLKPEDTAVYYCNARLRGAKYDYLGQGTQVTVSS | high polyreactivity
QVQLVESGGGLVQAGGSLRLSCASSGSISYYAMGWYRQAPGKERELVAAISSGGSTYYADSVKGRFTISRDNAKNTVYLQMNSLKPEDTAVYYCAVRYIIRGYATRYYYWGQGTQVTVSS | high polyreactivity
QVQLVESGGGLVQAGGSLRLSCAASGSTFNGYAIGWYRQAPGKERELVAAITWSGDSTYYADSVKGRFTISRDNAKNTVYLQMNSLKPEDTAVYYCAADDVKWDYDYWGQGTQVTVSS | low polyreactivity
QVQLVESGGGLVQAGGSLRLSCAASGFIFSRNAMGWYRQAPGKERELVAVISTRGGSTYYADSVKGRFTISRDNAKNTVYLQMNSLKPEDTAVYYCAARRTRGYEYWGQGTQVTVSS | high polyreactivity
QGQLVESGGGLVQAGGSLRLSCAASGFTFQYYAMGWSRQAPGKERELVAAISWSGGRTYYADSVKGRFTISRDNAKNTESLQMNSLKPEDTAVYYCAASYIVYPARYEDEGDYWGQGTQVTVSS | high polyreactivity
QVQLVESGGGLVQAGGSLRLSCAASGITFGRYAMGWYRQAPGKERELVAAITTRGGSTYYADSVKGRFTISRDNAKNTVYLQMNSLKPEDTAVYYCAADYRWAGRYYYWGQGTQVTVSS | high polyreactivity
QVQLVESGGGLVQAGGSLRLSCAASGSTFGSYAMGWYRHAPGKERELVAAINGGSSTNYADSVKGRFTISRDNAKNTVYLQMNSLKPEDTAVYYCNATETHRLYDSWGQGTQVTVSS | low polyreactivity
QHQLVESGGGLVQAGGSLRLSCAASGRTFHRNAKGWYRQAPWQERELVAAITGSGGSTYYADSVKGRFTISRDNAKNTVYLQMYSLKPEDTAVYYCATYSYPERTGGQRTHYYWGQGTQVTVSS | high polyreactivity
QVQLVESGGGLVQAGGSLRLSCAASGLTFVNSTMGWYRQAPGKEWEFVAAITSSGGSSTYYADSVKGRFTISRDNAKNTVYLQMNSLKPEDTAVYDCAAGFSRYVDIVILTVYTGDYWGQGTQVTVSS | low polyreactivity

Sequence | polyreactivity (PSR sort gate)
QVQLVESGGGLVQAGGSLRLICAASVSIFKAYAMGWYRQAPGKEMELVARIRYRGGSTYYADSVKGRFTISRDNAKNTVYLQMNSLKPEDTAVYYCAARFSPYHTDRGDYWGQGTQVTVSS | high polyreactivity
QVQLVESGGGLVQAGGSLRLSCSASGRIFVDNALGWYRQAPGKERELVATITSTGSTNYADSEKGRFTISRDNGMNTFYLQMNSLKPEDTAFYYCNADGIMQDYDYWGQVTQVTVSS | low polyreactivity
QVQLVESGGGLVQAGGSLRLSCAASGRTFTRNAMGWYRQAPGKERELVASITNGVSTNYADSVKGRFTISRDNAKNTVYLQMNSLKPEDTAVYYCNKGPLISYAYRYYQPYDYWGQGTQVTVSS | low polyreactivity
QVQLVESGGGLVQAGGSLRLSCAASGSTLPYYAMGWYRQAPGKEWELVAAITSSGGDTYYADSVKGRFTISRDNAKNTVYLQMNSLKTEDTAVYYCAKSYSARSTVRKLFYFAYDYWGQGTQVTVSS | low polyreactivity
QVQLVESGRGLVQAGGSLRLSCAASGSTFWNNGMGWYRQAPGKERELVAAINWSGDSTYYADSVKGRFTISRDNAKNTVYLQMNSLKPEDTAVYYCAAGYYTYSRRSSFFVAYGYWGQGTQVTVSS | low polyreactivity
QVQIVESGGGLVQAGGSLRISCAASGRIFRTYAMGWYRQAPGKERELVAAISSRGGSTSYADSVKGRFTISRDNEKNTVYLQLNSLKPEDTAVYYCARVGRNPVKYDYWGQGTQVTVSS | high polyreactivity
QVQLVESGGGLVQAGGSLRLSCAASGRIFYFNAMGWYRQAPGKEREFVASINSIGDSTYYADSVKGRFTISRDYAKNTVYLQMNRLKPEDTAVYYCNADHGVINYRLDYWGQGTQVTVSS | low polyreactivity
QVQLVESGGGLVQAGGSLRLSCADSGFTFYFYAMGWYRQAPGKEREFIATINFISGSTYYADSVKGGVTISRDNAKNTVYLQMNSLKPEDTAVYYCNKPFPYYPDGPNGYDYWGQGTQVTVSS | low polyreactivity
QVQLVESGGGIVQAGGSLRLSCAASVFTFLHNTMGWYRQAPGKERELVAAISIGGRTYYADSVKGRFTISRDIAKKTVYLQMNSLKPEDTAVYYCAKLSGGQSPGYDYWGQGTQVTVSS | high polyreactivity
QVQLVESGGGLVQAGGSLRLSCAASGFTFAANTMGWYRQAPGKERELVADISGRGDRTSYADSVKGRFTISRDNAKNTVYLQMNSLKPEDTSVYYCAVDIYYYSNVHYYYWGQGTQVTVSS | low polyreactivity
QVQLVESGGGLVQAGGSLRLSCAASGSIFGIYAKGWYRQAPGKERELVAAITTTGGTSDYADSVKGRFTISRENAKNTVYVQMKSLKPVDTAVYYCAADAYYYWYYSLDYYYWGQGTQVTVSS | high polyreactivity
QDQLVESGGGLVQAGGSLRLSCAASGNTFVSNAMGWYRQAPGKERELVAAIDSGGSTNYADSVKGRFTISRDNAKYTVYLQMNSLKPEDTAVYYCNRTSVYYYYWGQGTQVTVSS | low polyreactivity
QFQLVESGGGLVQAGGSLRLSCAASGFTITFYAKGWYRQAPGKERELVAAIRTSDGRTYYADSVKGRFTISRDNAKNTVYLQMNSLKPEDTAVYYCAAQVYRPRARYYEYDYWGQGTQVTVSS | high polyreactivity
QVQLVESGGGLVQAGGSLRLSCAASGNIFESYCMGWYRQAPGKERELVATINTSSGSTYYADSVKGRFTISRDTAKNTVYLQMNSLKPEDTAVYYCAAEWYPYPWGYGYWGQGTQVTVSS | low polyreactivity
QVHLVESGGGLVQAGGSLRLSCAASGFTFSFYAMGWYRQAPGKERELVAAIDRSGGSTYYADSVKGRFTISRDNAKNTVYLQMNSLKPEDTAFYYCAATVFYGYYYWGQGTQVTVSS | high polyreactivity
QVQLVESGGGLVQAGGSLRLSCAASGFTFRSYTMGWYIQAPGKERELVATITWNGGSTYYADSVKGRFTISRDNAKNTVYLQMNSLKPEDTAVYYCAADPPWNFWNYYRMDYWGQGTQVTVSS | low polyreactivity
QVQLVESGGGLVLAGGSLLLSCAAAGSTFSQNAMGWYRQAPGKERELVAAITSGGITYYADSVKGRFTISRDNAKNSVYLQMNSLKPEDTAVYYCNADPIVSPYRLWTVTYYYWGQGTQVTVSS | low polyreactivity
QVQLVESGGGLVQAGGSLRLSCAASGFTFDFYAMGWNRQAPGKERELVAVISSSGRTYYADSVKGRFTISRDNAKNSVYLQMNSMKPEDTAVYYCDAKDKRGHTYDYWGQGTQVTVSS | high polyreactivity
QVQLVESGGGLVQAGGSLRLSCAASGFTFRYYAKGWYRQAPVKERELVARISRGGNTYYADSVKGRLTISRDNAKNTVYLHMNSLKPEDTAVYYCAVDLTRTLSGMDYWGQGTQVTVSS | high polyreactivity
QDQLVESGGGLVQAGGSLRLSCAASGSTFPDYAAMGWYRPAPGTERELVAAISKRGGSTYYADSVKGRFTISRDNAKNTVYYQMNSLKPEDTAVYSCNVEYYILTAGRYARAYDYGGQGTQVTVSS | high polyreactivity
